# Reference: patent publication US20260265383A1 (FUSION ANTIBODIES, published 2026)
# Where a chain is given by its changes, count along the chain named.
# T1: RAMP2 IMM ECD V1
# T1 construct: The entry includes a signal peptide whose residues cannot be read (drawing); The text says 'RAMP2 ECD'; also called RAMP2 ECD
# T1 chain: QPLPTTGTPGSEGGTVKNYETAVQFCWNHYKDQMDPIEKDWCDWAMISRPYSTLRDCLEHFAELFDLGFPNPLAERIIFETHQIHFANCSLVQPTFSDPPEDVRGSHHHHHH
# T2: RAMP2 Scr V1
# T2 construct: it is not part of the secreted protein; Expressed in HEK cells
# T2 chain: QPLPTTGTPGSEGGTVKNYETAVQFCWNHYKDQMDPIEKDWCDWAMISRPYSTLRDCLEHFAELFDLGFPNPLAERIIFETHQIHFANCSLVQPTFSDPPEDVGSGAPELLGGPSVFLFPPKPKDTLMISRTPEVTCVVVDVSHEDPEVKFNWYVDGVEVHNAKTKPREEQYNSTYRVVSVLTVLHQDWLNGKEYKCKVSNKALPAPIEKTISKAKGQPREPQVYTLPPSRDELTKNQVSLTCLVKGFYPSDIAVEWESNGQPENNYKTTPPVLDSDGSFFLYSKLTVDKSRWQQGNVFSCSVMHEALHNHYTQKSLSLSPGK
# T3: RAMP3_Scr_V1
# T3 construct: Expressed in HEK cells
# T3 chain: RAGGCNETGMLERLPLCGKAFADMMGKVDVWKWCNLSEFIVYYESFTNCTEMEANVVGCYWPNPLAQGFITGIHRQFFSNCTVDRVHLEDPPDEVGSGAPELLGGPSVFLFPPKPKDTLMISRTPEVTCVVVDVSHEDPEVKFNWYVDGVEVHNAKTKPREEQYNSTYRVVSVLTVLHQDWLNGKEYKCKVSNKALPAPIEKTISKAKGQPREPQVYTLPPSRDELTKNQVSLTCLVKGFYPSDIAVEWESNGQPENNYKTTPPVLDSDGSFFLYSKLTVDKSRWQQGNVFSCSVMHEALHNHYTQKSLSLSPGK
# B1: RAMP2-rIgG-k1-2A8 (antibody, V domains shown)
# VH: QSLEESGGGLVQPEGSLTLTCTASGFDLSRYYYIFWVRQAPGKGLEWIGCIYIGGNIITYYASWAKGRFTISKTSSPAVTLQMTSLTVADTATYFCARGTGYGGYGDVSLWGPGTLVTVSS
# VL: APVLTHTAASVSEPVGGIVTINCQASQSIGSNLAWYQQKSGQPPKLLIYDASNLVSGVPSRFKGSRSGTEYTLTISDLECADAGTYYCQGYYYGSSTSYNLVSFGGGTEVVVK
# notes: tested as recombinant rabbit IgG-kappa1; also called rlgG-k1-2A8; 2A8_#12
# B2: RAMP2-rIgG-k1-1A10 (antibody, V domains shown)
# VH: QSLEESGGGLVQPEGSLTLTCTASGFSFSSSYYMCWVRQAPGKGLEWIGSIYTLSGSTAYASWAKGRFTISKTSSTTVTLQMTSLTAADTAMYFCARDSDGWGVSFNLWGPGTLVTVSS
# VL: AAVMTQTPSSLSAAVGGTVTIKCQASQSIRNQVSWYQQKPGQRPKLLIYRASTLESGVPSRFKGSGSGTDFTLTISDLECADAATYYCQCTYGSSSSNRYGNTFGGGTEVAVK
# notes: tested as recombinant rabbit IgG-kappa1; also called rlgG-k1-1A10; 1A10_#7
# B3: RAMP2-rIgG-k1-2A6 (antibody, V domains shown)
# VH: QSVEESGGDLVKPGASLTLTCTASGFSFSSRYYMCWVRQAPGKGLEWIGCIFGGSSGNTHYASWAKGRFTIAKTSSTTVTLRMTSLTAADTATYSCVRSDAWGVNLWGPGTLVTVSS
# VL: DVVMTQTPASVEAAVGGTVTIKCQASQSISNLLAWYQQKPGQPPKRLIYGASNLESGVPSRFKGSGSGTQFTLTISDLECADAATYYCQCSYDGSSPNAFGGGTEVVVE
# notes: tested as recombinant rabbit IgG-kappa1; also called rlgG-k1-2A6; 2A6_#9
# B4: RAMP2-rIgG-k1-2H3 (antibody, V domains shown)
# VH: B3 VH with G49A, G57D, T59S, H60Y, S63R, A72S, S95F
# VL: AAVMTQTPSPVSGVVGGTVTIKCQASQSIYGYFSWYQQKPGQPPKLLIYSASDLASGVPSRFKGSGSGTQFTLTISDLECADAATYYCQCSYDGSSPNAFGGGTEVVVK
# notes: tested as recombinant rabbit IgG-kappa1; also called rlgG-k1-2H3; 2H3_#13
# B5: RAMP2-rIgG-k1-1H6#4 (antibody, V domains shown)
# VH: QEHLVESEGGLFKPTDTLTLTCTVSGFSLSSYGVSWVRQAPGKGLEWIGVIGATGSAYYANWAKSRSTITRNTNLNTVTLKVTSLTAADTATYFCARDDVLTGMDLWGPGTLVTVSS
# VL: APVLTQTPASVEAAVGGTVTIKCQASQSINSWLSWYQQKPGQPPKLLIYQASKLASGVPSRFKGSGSGTEYTLTISDLKCADAATYYCQSYDYASNSGYVSNPFGGGTEVVVK
# notes: tested as recombinant rabbit IgG-kappa1; also called rlgG-k1-1H6
# B6: RAMP2-rIgG-k1-1A7#1 (antibody, V domains shown)
# VH: QSVEESGGDLVKPEGSLTLTCTASGFSFSISYWICWVRQTPGKGLEWIGCIYGGSSGRPYYASWAKGRFTISKTSSTTVTLQMTSLTAADTAAYFCATTAYGGYGYGTWGPGTLVTVSS
# VL: DGVMTQTPSSVSAAVGSTVTISCQASQSVFSNNYLSWYQQKPGQPPKLLIYTASSLASGVPSRFKGSGSGTQFTLTISDLECADAATYYCQCTYGKSGTDTYLNAFGGGTEVVVK
# notes: tested as recombinant rabbit IgG-kappa1 made in CHOEBNALT85-1E9 cells (supernatant); also called rlgG-k1-1A7
# B7: RAMP2-rIgG-k1-1H7 (antibody, V domains shown)
# VH: B6 VH with V3L
# VL: AAVLTQTPSSTSGPVGGTVTIKCQASQNIGSFLSWYQQKPGQPPKLLIYSASSLATGVPSRFSGSGSGTQFTLTISGVQCDDAATYYCLGFYAYRSDDGTAFGGGTEVVVK
# notes: tested as recombinant rabbit IgG-kappa1; also called rlgG-k1-1H7; 1H7_#5
# B8: RAMP3-rIgG-k1-3A12 (antibody, V domains shown)
# VH: QEQLEESEGGLFKPTDTLTLTCTVSGFSLSSYGVSWVRQAPGNGLEYIGFIGKTGSAYYASWAKSRSTITRNTTLNTVTLKMTSLTVADTATYFCARLGPGSIYYFDIWGPGTLVTVSS
# VL: DPMLTQTPSSKSVPVGGTVTINCQSSESVYDNNWLAWFQQKPGQPPKRLIYSASTLASGVSSRFKGSGSGTQFTLTISDVQCDDAATYYCTGYKSRTTDEIAFGGGTEVVVK
# notes: tested as recombinant rabbit IgG-kappa1; also called rlgG-k1-3A12; 3A12_#17
# B9: RAMP3-rIgG-k1-3A5 (antibody, V domains shown)
# VH: QSLEESGGGLVQPEGTLTLTCTVSGFSFSSNYWICWVRQAPGKGLEWIACIVTNSGTTYYTSWAKGRLTLSKTSSTTVTLQMTSLTAADTATYFCARDNNSVTGVEFNLWGPGTLVTVSS
# VL: DVVMTQTPASVSAAVGATVTIKCQASETIGNNLAWYQQKPGQPPKVLMFLASTLASGVPSRFKGSRSGTEYTLTISGVQCDDAATYYCQSYLGTSYAFGGGTEVVVK
# notes: tested as recombinant rabbit IgG-kappa1; also called rlgG-k1-3A5; 3A5_#15
# B10: RAMP3-rIgG-k1-6B8 (antibody, V domains shown)
# VH: QSLEESGGGLVKPEGSLTLTCTASGFFFDRSYWICWVRQTPAKGLEWIACIVVSSGATYYASWAKGRLTLSKTSSTTVTLQMTSLTAADTAIYFCARDSSSTSGVEFNLWGPGTLVTVSS
# VL: DVMMTQTPASVSEPVGGTVTIKCQASQNIGNNLAWYQQKPGQPPKLLIYLTSTLASGVPSRFKGSRSGTEFTLTISDLECADAATYFCQSYLYTTYAFGGGTEVVVK
# notes: tested as recombinant rabbit IgG-kappa1; also called rlgG-k1-6B8; 6B8_#24
# B11: RAMP3-rIgG-k1-6D8 (antibody, V domains shown)
# VH: QSVEESGGDLVRPEGSLTLTCTASGFSLSSSYWICWVRQAPGKGLEWIACIVSNTGTTYYASWAKGRLTLSKTSSTTVTLQMTSLTAADTATYFCARDNNSKSGVEFNLWGPGTLVTVSS
# VL: B10 VL with M3V, Q42H, T51A, F87Y
# notes: tested as recombinant rabbit IgG-kappa1; also called rlgG-k1-6D8; 6D8_#28
# B12: RAMP3-rIgG-k1-6C2 (antibody, V domains shown)
# VH: QEQLEESEGGLFKPTDTLTLTCTVSGFSLSVYALTWVRQAPGNGLEWIGAIGNSGNTYYASWAKSRSTITRNTNENTVTLKMTSLTAADTATYFCARGYVRINVWGPGTLVTVSS
# VL: DGVMTQTPSSVSAAVGGTVTISCQSSQSVYKNNYLSWFQQKPGQPPKLLIYEISKLESGVPDRFSGSGSGTQFTLTISGVQCDDAATYYCLGGYDDDSDTSFGGGTEVVVK
# notes: tested as recombinant rabbit IgG-kappa1; also called rlgG-k1-6C2; 6C2_#25
# B13: RAMP3-rIgG-k1-4C10 (antibody, V domains shown)
# VH: QEQLEESGGGLVKPTDTLTLTCTVSGFSLSTNSIFWVRQAPGNGLEWIGAISYAGGTAYASWAKSRSTITRNTNLNTVTLKMTSLTAADTATYFCGRGYVGYSRSKGDIWGPGTLVTVSS
# VL: DGVMTQTPSSTSAAVGSTVTISCQSTQSIINNNWLAWYQQKPGHSPKLLIYDASTLASGVPSRFSGSGSGTQFTLTISDLECDDAATYYCAARYSGDIYTFGGGTEVVVR
# notes: tested as recombinant rabbit IgG-kappa1; also called rlgG-k1-4C10; 4C10_#19
# B14: RAMP3-rIgG-k1-5H9 (antibody, V domains shown)
# VH: QSLEESEGGLFKPTDTLTVTCIVSGLSLSRNAMSWVRQAPGSGLEWIGVIVTYGDTYYASWAKSRSTITRNTNENTVTLKMTSLTAADTATYFCIGGLDIWGPGTLVTVSS
# VL: DVVMTQTPASVEAAVGGTVTIKCQATESIASWLAWYQQKAGQPPKLLIYEASKLESGVPSRFKGSGSGTEFTLTISDLECADAATYYCQSYLYSSSNTYGNSFGGGTEVVVK
# notes: tested as recombinant rabbit IgG-kappa1; also called rlgG-k1-5H9; H9_#22
# Biological target: T1, RAMP2 IMM ECD V1
# Assay: direct ELISA, 6-well supernatants at 8-500 ng/ml on RAMP2 ECD coated at 1.0 µg/ml
# Procedure: Immuno modules (Thermo Scientific™) were coated with RAMP2 ECD or RAMP3 Scr, 1.0 μg/ml in PBS, 100 μl/well, 20 h at 4° C. Supernatants of anti-RAMP2 and anti-RAMP3 rabbit IgG-κ1 antibody clones were transfered into wells at different concentrations (8-500 ng/ml; 100 μL/well, in PBS-0.05% Tween 20-1% BSA) and the plates were incubated for 60 min. on a shaker at room temperature (RT). Goat anti-rabbit-IgG HRP conjugate (Invitrogen; 1:20 000 in 1% BSA-PBS-0.05% Tween 20; 100 μL/well) was used as secondary reagent in direct ELISA (incubation time 60 min. at RT). To visualize, TMB substrate was added for 10 min. and stopped with 0.5 M H₂SO₄. Between every incubation step the wells were washed 4 times with PBS-Tween 20.
row,titer [ng/mL],Binder
1,< 8,B1
2,< 8,B2
3,< 8,B3
4,< 8,B4
5,< 8,B5
6,< 8,B6
7,< 8,B7

# Biological target: T2, RAMP2 Scr V1
# Assay: ELISA, 24-well supernatants on coated antigen
# Procedure: (§1) Amplified VH and VL were purified and altogether 20 cloning reactions per target were performed for cloning into rabbit IgG-κ1 encoding two-cassette expression plasmid by using Ligase Independent Cloning (LIC) method. Resulting antibody library pools were grown in E. coli strain DH5a. Plasmid DNA was purified and transfected into CHOEBNALT85-1E9 cells for transient production of antibodies in serum-free media for 48 hours in 24-well format. Cell culture supernatants were tested for RAMP2 Scr and RAMP2 ECD or RAMP3 Scr binding in ELISA (wells coated at 1 μg/ml in PBS).
row,binding result,Binder
1,binds,B1
2,binds,B2
3,binds,B3
4,binds,B4
5,binds,B5
6,binds,B7

# Biological target: T3, RAMP3_Scr_V1
# Assay: ELISA, 24-well supernatants on coated RAMP3 Scr
# Procedure: as §1
row,binding result,Binder
1,binds,B8
2,binds,B9

# Biological target: T2, RAMP2 Scr V1
# Assay: ELISA, single-clone supernatants on RAMP2 Scr
# Procedure: (§2) 8 specific ELISA positive pools against both targets were selected for single clone isolation. Single clones were selected in LB-Amp solid medium, colonies were grown in liquid medium o/n on shaker at 37° C. in 96-well microtiter plates (2-4 96-well plates per target), plasmid DNA was isolated and transfected into CHOEBNALT85-1E9 cells for antibody transient production. 48-72 hours after transfection supernatants were analyzed by ELISA on RAMP2 Scr or RAMP3 Scr respectively.
row,binding result,Binder
1,binds,B6

# Biological target: T3, RAMP3_Scr_V1
# Assay: ELISA, single-clone supernatants on RAMP3 Scr
# Procedure: as §2
row,binding result,Binder
1,binds,B10
2,binds,B11
3,binds,B12
4,binds,B13
5,binds,B14
